Drawing on paper PMC9524020, this text covers Kd for one substance.

Common to all, as to experiment: SPR
For orientation: Surface plasmon resonance follows binding to a sensor surface in real time, without labels.

The target of assay [1] is FcγRIIIa-158F-CHO^WT (soluble FcγRIIIa, allotype 158F, from wild-type CHO) (human) (UniProt P08637).
Assay [2] addresses FcγRIIIa-158V-CHO^WT (soluble FcγRIIIa, allotype 158V, from wild-type CHO) (human).
Assay [3] concerns the target FcγRIIIa-158V-HEK^WT (human).
Assay [4] deals with FcγRIIIa-158F-G2FS(2-3) (human) (UniProt P08637).
FcγRIIIa-158F-G2FS(2-3) (human), sequence (P08637 17-208): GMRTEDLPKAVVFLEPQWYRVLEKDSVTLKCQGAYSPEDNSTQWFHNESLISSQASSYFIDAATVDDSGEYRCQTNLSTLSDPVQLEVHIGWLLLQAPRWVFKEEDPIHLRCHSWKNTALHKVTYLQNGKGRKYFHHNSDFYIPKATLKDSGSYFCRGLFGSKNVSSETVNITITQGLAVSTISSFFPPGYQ
The target in assay [5] is FcγRIIIa-158V-G2FS(2-3) (human).
Assay [6] deals with FcγRIIIa-158F-HEK^WT (human) (UniProt P08637).
FcγRIIIa-158F-HEK^WT (human), sequence (P08637 17-208): as above
The target of assay [7] is FcγRIIIa-158V-Oligomannose (human).
Assay [8] deals with biotinylated, recombinant, human FcγRIIIa-158V from SinoBiological (human).
For assay [9], the target named is FcγRIIIa-158F-G2FS(2-6) (human) (UniProt P08637).
FcγRIIIa-158F-G2FS(2-6) (human), sequence (P08637 17-208): as above
The target in assay [10] is FcγRIIIa-158V-Afucosylated (human).
Assay [11] has as its target biotinylated, recombinant, human FcγRIIIa-158F from SinoBiological (human) (UniProt P08637).
In assay [12] the target is FcγRIIIa-158V-Hybrid (human).
Assay [13] deals with FcγRIIIa-158V-G2FS(2-6) (human).
For assay [14], the target named is FcγRIIIa-158V-Monoantennae (human).
Assay [15] addresses FcγRIIIa-158F-Afucosylated (human) (UniProt P08637).
For assay [16], the target named is FcγRIIIa-158F-Monoantennae (human) (UniProt P08637).
FcγRIIIa-158F-Monoantennae (human), sequence (P08637 17-208): as above
For assay [17], the target named is FcγRIIIa-158F-Hybrid (human) (UniProt P08637).
FcγRIIIa-158F-Hybrid (human), sequence (P08637 17-208): as above

pKd: −log10 of the molar value.

FcγRIIIa-158F-CHO^WT (soluble FcγRIIIa, allotype 158F, from wild-type CHO) (human), sequence (P08637 17-208): as above
FcγRIIIa-158F-Afucosylated (human), sequence (P08637 17-208): as above
biotinylated, recombinant, human FcγRIIIa-158F from SinoBiological (human), sequence (P08637 17-208): as above

For IgG1-G2FS(2-3) (mAb SO57) (antibody), the negative-log Kd (pKd) (usually the Kd on a negative log10 scale, so that one unit is a factor of ten) in assay [1] was 5.72; in assay [2] it was 6.54; in [3], 6.59; in assay [4], 5.87; in assay [5], 6.41; in assay [6], 5.92. Moreover, the negative logarithm of the Kd (pKd) in assay [7] is 6.84; in assay [8], 6.56; in [9], 6.08; in assay [10], 6.56; in assay [11] it was 6.02; in assay [12] it was 6.52. Moreover, the pKd was 6.59 in [13]; 6.51 in assay [14]; 5.92 in [15]; 5.87 in assay [16]; 5.91 in [17].
